# Paper PMC12370991, “Visualizing acyl carrier protein interactions within a crosslinked type I polyketide synthase” (Nature Communications, 2025)
# T1: E. coli FabF (KS) (E. coli, UniProt P0AAI5 1-413)
# T1 construct: FabF, type II FAS ketosynthase, E. coli
# T1 sequence (looked up): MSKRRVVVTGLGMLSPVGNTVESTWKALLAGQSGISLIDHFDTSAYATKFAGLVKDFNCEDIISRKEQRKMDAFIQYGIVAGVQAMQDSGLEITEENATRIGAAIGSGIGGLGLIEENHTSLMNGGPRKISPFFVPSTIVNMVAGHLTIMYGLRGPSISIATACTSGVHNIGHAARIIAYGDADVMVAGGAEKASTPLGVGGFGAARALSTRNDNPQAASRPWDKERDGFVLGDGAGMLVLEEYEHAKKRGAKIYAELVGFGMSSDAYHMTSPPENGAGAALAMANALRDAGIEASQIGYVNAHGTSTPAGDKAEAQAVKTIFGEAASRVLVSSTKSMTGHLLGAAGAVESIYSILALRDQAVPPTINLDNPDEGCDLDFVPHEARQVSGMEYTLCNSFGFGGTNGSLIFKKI
# T2: E. coli FabA (DH) (E. coli, UniProt P0A6Q3 2-172)
# T2 construct: FabA, type II FAS dehydratase, E. coli
# T2 sequence: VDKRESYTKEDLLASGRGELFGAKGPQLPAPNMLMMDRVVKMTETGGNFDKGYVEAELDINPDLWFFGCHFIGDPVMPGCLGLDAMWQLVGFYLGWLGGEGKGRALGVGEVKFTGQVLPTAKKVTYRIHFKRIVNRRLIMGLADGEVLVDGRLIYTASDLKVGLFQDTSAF
# Key:
# E. coli FabF (KS) = biological target: T1, E. coli FabF (KS); experiment: cross-linking; settings: both partners purified
# E. coli FabA (DH) = biological target: T2, E. coli FabA (DH); experiment: cross-linking; settings: both partners purified
binder,measurement,setting,value
"E. coli crypto-AcpP (acyl carrier protein of the type II FAS loaded with a crosslinker) (natural protein, crosslinker 2, 3, 5, 6 or 8 loaded chemoenzymatically (crypto-AcpP), AcpP, acyl carrier protein of the type II fatty acid synthase, E. coli; also called E. coli ACP; source: crypto-AcpP purified by SEC) MSTIEERVKKIIGEQLGVKQEEVTNNASFVEDLGADSLDTVELVMALEEEFDTEIPDEEAEKITTVQAAIDYINGHQA",binding result,E. coli FabF (KS),binds
same,binding result,E. coli FabA (DH),binds
